Source: publication PMC8334348

Target: Brucella abortus peptidoglycan hydrolase inhibitor A (PhiA), mature periplasmic form (Brucella abortus)
Assay: SEC-MALS

Work on “Brucella abortus peptidoglycan hydrolase inhibitor A (PhiA), mature periplasmic form (natural protein)” yielded a stoichiometry N of 4.
